Results taken from the DeepSol protein solubility set.

Test: soluble on expression in E. coli; label from the status in PepcDB or PDB records

Sequence | soluble on expression in E. coli
MKNNKVLVVVGPTAVGKTALGIDLAIKFNGEIISGDSQQVYQGLDIGTAKVTMAEQAQVPHHLIDVRKWTENFSVHDFVIEANQLIKEILDQGKVPIIVGGTGLYIQSLIEGYHLGGQENHEEMMKLREELSLLSDEELFAKVIKINPDISELNRRRAIRFLELQTFGSQDENLGSDYDFLLIGLNADRKVLYDRINQRVDQMMREGLLDEARTLYEQAPEVQAAKGIGYKEFFPYFSGDISLEEAVELVKRNSRRYAKRQLTWFKNRMSVEFEDVFSKNYPEPIFDKVTQFLNLEHHHHHH | not soluble
MKNPCNVIAIIGKPRDQQAIQTHKELYEWLTSEGYKVFIDDRLAAILDEIPQNHFASLVELGKNADLAIVVGGDGNMLGAARILSRFDVPVIGVNRGNLGFLTDLNPDDFQAALKAVLAGEYIEEERFLLEAEVHRHGQIKSHNAALNEAVLHPGQIAHMIEFEVYIDESFAFSLRADGLIVSTPTGSTAYSLSGGGPILSPSLNAISLVPMFPHTLSSRPLVVDGKRRIKLIVSPENRGTQEVSCDGQVSLPVSPGDEIHIYQSPNVLKLIHPKDYSYYHVLRNKLGWSSKLFMAGDPLEHHHHHH | soluble
MKNSLRIPRIIHQTWKTKDVPSPLDQLPQTWKEYLPNWEYILWTDEMNREFVCKHFPDFLEKYDTYPCNIQRADAIRYLLLKVYGGLYVDMDFECLENIEFLLEGSDFIVGKEPDWHAKRFGFEYIICNAFMASTPDNDFINFVCQRLINHSGGKVVNNGFDILDSTGPFLLTHAFNAFPHKEDIRILESKTIYPIGQWEVEKIKNNQIPKEMEERINQAHAIHYFFGTWFGKLEHHHHHH | not soluble
MKNSNFPAEVKDLTKRIRTVLMATAQMKEHEKDPEMLVDLQYSLANSYASTPELRRTWLESMAKIHARNGDLSEAAMCYIHIAALIAEYLKRKGYWKVEKICTASLLSEDTHPCDSNSLLTTPSGGSMFSMGWPAFLSITPNIKEEGAMKEDSGMQDTPYNENILVEQLYMCVEFLWKSERYELIADVNKPIIAVFEKQRDFKKLSDLYYDIHRSYLKVAEVVNSEKRLFGRYYRVAFYGQGFFEEEEGKEYIYKEPKLTGLSEISQRLLKLYADKFGADNVKIIQDSNKVNPKDLDPKYAYIQVTYVTPFFEEKEIEDRKTDFEMHHNINRFVFETPFTLSGKKHGGVAEQCKRRTILTTSHLFPYVKKRIQVISQSSTELNPIEVAIDEMSKKVSELNQLCTMEEVDMIRLQLKLQGSVSVKVNAGPMAYARAFLEETNAKKYPDNQVKLLKEIFRQFADACGQALDVNERLIKEDQLEYQEELRSHYKDMLSELSTVMNEQITGRDDLSKRGVDQTCTRVISKATPALPTVSISSSAEV | not soluble
MKNTELEQLINDKLNSAAISDYAPNGLQVEGKETVQKIVTGVTASQALLDEAVRLQADAVIVHHGYFWKGESPVIRGMKRRRLKTLLANDINLYGWHLPLDAHPELGNNAQLAALLGITVKGEIEPLVPWGELSMPVPGLELASWIEARLGRKPLWCGDTGPENVQRVAWCTGGGQSFIDSAARFGVDAFITGEVSEQTIHSAREQGLHFYAAGHHATERGGIRALSEWLNENTALDVTFIDIPNPALEHHHHHH | soluble
MKNTLKLPLLIGVAGGTSCGKSTIVERIIENLNANAKQSGRQIDIVHLSLHSFYRELSAEEKILAREGKFNFDHPDQINFDLLAETLQNMIDGKTVEIPKYDMITSSMNGTVTVEPAKVIIIEGILLLYDERVRKLLSTKLFVEKNAESRLRNRLATYIRDYHRAPLSIIRQYTEFVKPAFEEFCRPTKKYADVIIPRGADNHVATDLIAKNLQVRFKRQNNALFDFEL | not soluble
MKNVVIHQIVTLIFTEDQLRAYWQKQESTVPFAALTDAQYMKLAEDMLAHSSHSQLEQHLLGGRWRTKEEAEGAVLAEDESRDDIHVEIIDTNAPAEPRRRMLIDRVREILCPHCSFTFYVREAASERRDWTCPACGSGFCDLTP | not soluble
MKPKAITFDFWGTLFTEGEAFLEKVMPARYEILLDALSEAGHPVDEAEVREAYRQASLAFEEAWKAGEHMPVYERVARIFALLGAPHDPGLIALTARRLEESSLLAPLKPLPGVEVLKDLAKKYPLAIVSDTGMTPGRLLREHLKRQGLDVFQAFSFSDETGFVKPKPEAFRVALEALGVAPEEALHVGDLPQTDIKGAFGTGYPWAVQYVGLREVNGEVRPTAKVKDHRELLSLLT | soluble
MKPPPRRRAAPARYLGEVTGPATWSAREKRQLVRLLQARQGQPEPDATELARELRGRSEAEIRVFLQQLKGRVAREAIQKVHPGGLQGPRRREAQPPAPIEVWTDLAEKITGPPEEAVAVAFSQVLTIAATEPVTLLHSKPPKPTQARGKPLLLSAPGGQEDPAPEIPSSAPAAPSSAPRTPDPAPEKPSESSAGPSTEEDFAVDFEKIYKYLSSVSRSGRSPELSAAESAVVLDLLMSLPEELPLLPCTALVEHMTETYLRLTAPQPIPAGGSLGPAAEGVGAGSKAPEETPPATEKAEHSELKSPWQAAGICPLNPFLVPLELLGRAATPAR | soluble
MKPRVEILMSTYNGEKFLAEQLDSILAQTHQYFVLTVRDDGSKDGTPDILSRYAATDERITYCVQENRGVVGSFYWLLKNSSPLSNYVAFSDQDDVWLPNKLERALDVLSRYDETLPLLYCSRVEYVSAGLGHLDDSPMMVRPVCLNNALIQNVATGCTVVMNKAARDLLLEREWPPQVLMHDWWSYIVVSAFGKVVYDDFVSIKYRQHGGNVIGGTVSFVSDYRSRIINFLSRRRKGVFGCYDQAYSFWLGYKDELKGESRGIVSQFIESKRSFLSRLNYLTSSQRVYRHRFIDDVLVRLLILSNKYLEHHHHHH | not soluble
MKPSWDIFCSVVDNYGDAGVTWRLARQLVAEHDVQVRLWIDDLAAFVRLCPDADPCASQQLREGVSVCRWPADWVSSTVPDVVIEAFACRLPTSYTESMLQRSPRPLWLNLEYLSAEDWVSGCHGLPSPQMNGLKKFFFFPGFADTTGGLLRERNLIGQRQAFQQDKALQQAFLQELNVEPLAGARLISVFAYETPRLDSWLDALASDSRPTHLLVPEGRILADVQRWLGSEGQLHAGTVQASGALTVQVLPFIRQERYDQLLWSCDFNVVRGEDSFVRAQWAGRPMLWHIYQQEEDAHLPKLDAFLALYL | not soluble
MKPYQRQFIEFALNKQVLKFGEFTLKSGRKSPYFFNAGLFNTGRDLALLGRFYAEALVDSGIEFDLLFGPAYKGIPIATTTAVALAEHHDKDLPYCFNRKEAKDHGEGGSLVGSALQGRVMLVDDVITAGTAIRESMEIIQAHGATLAGVLISLDRQERGRGEISAIQEVERDYGCKVISIITLKDLIAYLEEKPDMAEHLAAVRAYREEFGV | soluble
MKQAIGFIDSGVGGLTVVREVLKQLPHEQVYYLGDTARCPYGPRDKEEVAKFTWEMTNFLVDRGIKMLVIACNTATAAALYDIREKLDIPVIGVIQPGSRAALKATRNNKIGVLGTLGTVESMAYPTALKGLNRRVEVDSLACPKFVSVVESGEYKSAIAKKVVAESLLPLKSTKIDTVILGCTHYPLLKPIIENFMGDGVAVINSGEETASEVSALLDYHNLLDATDEEIEHRFFTTGSTQIFKDIAKDWLNMPDMTVEHIKLGK | not soluble
MKQCAHTKVWQTIVAEAREQAEQEPMLASFYHATIIKHDSLKAALSYILANRLNTASMPAMAVREVIEEAFAADPSISEAAACDICATVNRDPAVSMYSMPLLYLKGYHALQGYRVANWLWRQGRKALATYFQNQISVACQVDIHPAARIGRGIMLDHATGIVIGETAVVEDDVSILQDVTLGGTGKECGDRHPKIREGVMIGAGAKILGNIEVGEGAKIGSGSVVLQAVPPHTTVAGVPARIVGRPQSDKPSLDMDQQFNGRSQTFIGGDGI | not soluble
MKQESASQSTPPPSLSPAPSSAQPFWGDGDPQALWIFGYGSLVWKPDFAYSDSRVGFVRGYSRRFWQGDTFHRGSDKMPGRVVTLLEDHEGCTWGVAYQVRGEQVNEALKYLNVREAVLGGYDTKEVTFYPQDTPDQPLTALAYVATPQNPGYLGPAPEEVIATQILACRGFSGHNLEYLLRLADFMQLCGPQAQDEHLEAIVDAVGTLLPCSYLPEQPLALT | soluble
MKQFKIRSVLQSIALLVLAGTAAAEPKPEKITHGRFEQIPVLRPDGEPQRVVIWFSDAGHVDQRTRQAEILRQDGAMVALVDTTHLYKVLAADSNHCTFSVGDVENLSRYLQAYYRDKTYRLPLLVGDGDGSGLVYAVAAQATENILAGVVSDGLCPVVVPTQAVCGAGVASDQHLKPAPVAAPLLVMTVSSAHCPAQLTSGFVRKVALGREIRLAASADLLPRLRAALRVLGAQKGVSLPPPPADLDGLPVVEVPSKAQKKSDTFAIFVSGDGGWAEIDKKVAGHLADADIPVVGLDSLRYFWSERTPEGFAKDLDRIARFYAHHWKRNRLLLVGFSQGADVLPAAINKLSPNTRQIIRMTALLSLGKYAHYEFHVSNWISTDDEGIPIAPDMVKLRSTRTVCIYGVDDQETLCPSLPQQNRRVALPGTHHFNGDYETVAKTILAQMEAAPLEHHHHHH | not soluble
MKQGKFSVFLILLLMLTLVVAPKGKAEAASSGWQPVSGISGCKIRVITDAYTYTKSATSIDAYAETNGKCGKLNYKSFGVSIVEGGDIGPQYSGYFSSRTPTKKFYFSKLPKPTGTPWAVGLSVYKGKAKGAAFVYINPQKRLEHHHHHH | not soluble
MKQVKITTTSDLINGGCNACPNVKCTNYLVHVEDETIALETLTVADLVTLLALKEGFRQKLVMEMFEEYTVFERETHQVVFKEEETRILFQSKKQTIQSTLLCKEPQQVFQETQQILHQLFELEPFEFELVEETDE | not soluble
MKQYGFYVDSSRCSGCKTCQVSCKDNKDLDVGPKLRRVYEYGGGSWVKEGESWHHDTFTYYLSIACNHCDEPVCVSGCPTGAMHKRKEDGLVVVDDSVCVGCRYCEMRCPYGAPQFDTQANVMRKCDGCLDRLENNLRPICVDSCPQRALDFGPVDELRAKYGTENQIAPLPSASFTHPNLIIKPHPKARPTGDTEGAIMNIREVRHA | not soluble
MKRADDFQQRRAHLANLSDEELQTRFWEMAEKIVDPLLDLGKKNTTPSIERSVLLRMGFSSLEAKAIVDKTMDRGLMGKGAGHIVYKIAKEKNISVREAGLALSEGKYWDDAIQIFKGGVK | soluble
MKRIADEELVREERAEESTQKWLQDAKFQEILGADSSHKSLFVLLSHPDGSQGILLANKSPFSEEKSDIEKLLATAQLQEISRNDIFGSYNIEIDPKLNLLKSQLIYPINDRLIAKYRQEEKFVIRETPELYETVTRPYIEKYQLNLNWVYNCLEKRSEVDKIVFEDPDNENGFVLLQDIKWDGKTLENLYVLAICHRHGLKSVRDLTGDDLEMLYNMRDKSLEAINQKYGLKTDQIKCYFHYQPSFYHLHVHFINLKYDAPASTTMSAILLDDVINNLELNPEHYKKSTLTFTRKNGDKLMEMFREALKN | not soluble
MKRSIAPLLVCPACLPKERPLELTATAEADGDITAGHLSCKGCRRRFPIRDGIAVLLPDPDTGPSGGQWKYEEQGTLATYLWSHFADLAGDPEAGDAYASWASALAGNAETSLDAGCAVGRLTFELGQRSGLAVGFDLSLTFIRAARQLARERQIRFSLPREGNLRDEFRLTLPDCWRTDEVEFVVADALAIPFARETFDRTASLNLIDRVSYPLAHLYEMNRVARLSGASFLLSDPFSWSTANAPEEKWLGGTESGPYSGRGMDNVKAILGGKEAIIAPPWTVAREGSVWWKIRSHRNHFELIRSEFLVAERLEHHHHHH | not soluble
